The record followed here is US20240209076A1 (KODIAK SCIENCES, published 2024).

Sequences and labels used below:
B1: anti-IL-6 antibody, heavy chain Y104V, light chain WT (antibody, IgG1, V domains shown)
VH: EVQLVESGGGLVQPGGSLRLSCAASGFTFSPFAMSWVRQAPGKGLEWVAKISPGGSWTYYSDTVTGRFTFSLDTSKSTAYLQMNSLRAEDTAVYYCARQLWGYVALDIWGQGTLVTVSS
VL: DIQLTQSPSSLSASVGDRVTITCSASISVSYMYWYQQKPGKAPKLLIYDMSNLASGVPSRFSGSGSGTDFTLTISSLQPEDFATYYCMQWSGYPYTFGQGTKVEIK
notes: Full IgG1 tested; V domains derived as in m2
B2: anti-IL-6 antibody, heavy chain Y103S, light chain WT (antibody, IgG1, V domains shown)
VH: B1 VH with Y103S, V104Y
VL: B1 VL
notes: as for B1
B3: anti-IL-6 antibody, heavy chain Y103D, light chain WT (antibody, IgG1, V domains shown)
VH: B1 VH with Y103D, V104Y
VL: B1 VL
notes: as for B1
B4: anti-IL-6 antibody, heavy chain Y103E, light chain WT (antibody, IgG1, V domains shown)
VH: B1 VH with Y103E, V104Y
VL: B1 VL
notes: as for B1
B5: Anti-IL-6 antibody, heavy chain S35H, G66D / light chain WT (antibody, IgG1, V domains shown)
VH: B1 VH with S35H, G66D, V104Y
VL: B1 VL
notes: IgG1; variable domains only
B6: Anti-IL-6 antibody, heavy chain S35H, G66D, L100D / light chain WT (antibody, IgG1, V domains shown)
VH: B1 VH with S35H, G66D, L100D, V104Y
VL: B1 VL
notes: IgG1; variable domains only
B7: Anti-IL-6 antibody, heavy chain G66D / light chain WT (antibody, IgG1, V domains shown)
VH: B1 VH with G66D, V104Y
VL: B1 VL
notes: IgG1; variable domains only
B8: Anti-IL-6 antibody, heavy chain S35H, G66D, L100E / light chain WT (antibody, IgG1, V domains shown)
VH: B1 VH with S35H, G66D, L100E, V104Y
VL: B1 VL
notes: IgG1; variable domains only
B9: Anti-IL-6 antibody, heavy chain S35H, G66D, L100F / light chain M32L, M50D, N52S, M88Q (antibody, IgG1, V domains shown)
VH: B1 VH with S35H, G66D, L100F, V104Y
VL: B1 VL with M32L, M50D, N52S, M88Q
notes: IgG1; variable domains only; VL is variant III
B10: Anti-IL-6 antibody, heavy chain S35H, G66D, L100D / light chain M32L, M50D, N52S, M88Q (antibody, IgG1, V domains shown)
VH: B1 VH with S35H, G66D, L100D, V104Y
VL: B1 VL with M32L, M50D, N52S, M88Q
notes: as for B9
B11: Anti-IL-6 antibody, heavy chain G66D / light chain M32L, M50D, N52S, M88Q (antibody, IgG1, V domains shown)
VH: B1 VH with G66D, V104Y
VL: B1 VL with M32L, M50D, N52S, M88Q
notes: as for B9
B12: Anti-IL-6 antibody, heavy chain S35H, G66D, L100A / light chain WT (antibody, IgG1, V domains shown)
VH: B1 VH with S35H, G66D, L100A, V104Y
VL: B1 VL
notes: IgG1; variable domains only
B13: Anti-IL-6 antibody, heavy chain S35H, G66D, L100E / light chain M32L, M50D, N52S, M88Q (antibody, IgG1, V domains shown)
VH: B1 VH with S35H, G66D, L100E, V104Y
VL: B1 VL with M32L, M50D, N52S, M88Q
notes: as for B9

Residue numbers refer to the chain shown, from its start. Names and notes keep the numbering of the source.

Chain of human IL-6 (P05231 30-212 limits assumed): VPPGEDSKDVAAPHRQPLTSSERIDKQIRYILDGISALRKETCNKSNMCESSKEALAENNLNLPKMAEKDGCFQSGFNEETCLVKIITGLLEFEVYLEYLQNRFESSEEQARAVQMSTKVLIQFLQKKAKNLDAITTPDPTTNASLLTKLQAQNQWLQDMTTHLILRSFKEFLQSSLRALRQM

The target of the first test is T1, recombinant human IL-6 (human, UniProt P05231 30-212).
T1 construct: Flowed in solution over the captured antibodies
T1 sequence (P05231 30-212 limits assumed): as above
The experiment in a line: SPR (Biacore), supernatant IgG on Protein A, 25 C. The method, then: Antibodies were captured on a Protein A chip (GE) by injecting 1:20 dilution of cell supernatant at 10 μL/min for 60 seconds. […] The sensor chip was regenerated by a 60 seconds injection of 10 mM Glycine pH 1.7 at flow rate of 50 μL/min. […] For this setup, 1 μg/mL of purified antibody was injected over a Protein A chip at 10 μL/min for 25-28 seconds. Data analysis for supernatant and purified samples were performed using BIAevaluation software (GE). All sensorgrams were double reference subtracted and fit using a 1:1 Langmuir binding model.
In general terms: In SPR one partner is held on a chip, and binding of the other changes the refractive index at the surface.
As to B1, the dissociation constant Kd (commonly the equilibrium constant for the complex coming apart) was determined as 1.34 nM; the koff (commonly a measure of how fast the partners let go of each other) came out at 0.000703 s⁻¹; the association rate constant (kon) (in general, the rate constant with which the complex forms) worked out at 525000 M⁻¹ s⁻¹.

B2: the Kd stood at 0.423 nM, the koff was found to be 0.000231 s⁻¹ and the kon was 546000 M⁻¹ s⁻¹.

As to B3, the Kd worked out at 0.297 nM, the off-rate (koff) is 0.000219 s⁻¹ and the association rate constant (kon) was found to be 737000 M⁻¹ s⁻¹.

In the case of B4, the Kd worked out at 0.229 nM, the dissociation rate constant (koff) came to 0.000165 s⁻¹ and the association rate constant (kon) was 718000 M⁻¹ s⁻¹.

In the next test the target is human IL-6 (human, UniProt P05231 30-212). The experiment in a line: SPR Biacore, supernatant, Protein A capture, 37 C. The method, then:
Those four positions were selected based on their tolerance for mutations as observed in bacterial and mammalian screens. […] These cultures were centrifuged and supernatants containing secreted antibodies were harvested and diluted in HBS-EP+ running buffer (1:20 ratio).
Antibodies were captured on a Protein A chip (GE) by injecting 1:20 cell supernatant dilutions at 10 μL/min for 60 seconds. […] The sensor chip was regenerated by a 60 seconds injection of 10 mM Glycine pH 1.7 at the flow rate of 50 μL/min. […] For this setup, 1 μg/mL of purified antibody was injected over a Protein A chip at 10 μL/min for 25 seconds. […] The sensor chip was regenerated by a 60 seconds injection of 10 mM Glycine pH 1.7 at flow rate of 50 μL/min. Data analysis for supernatant and purified samples were performed using BIAevaluation software (GE). All sensorgrams were double reference subtracted and fit using a 1:1 Langmuir binding model.
Turning to B5, binding was characterised by a dissociation constant (Kd) of 0.374 nM, the dissociation rate constant (koff) came to 0.000548 s⁻¹ and the on-rate (kon) came to 1.46e+06 M⁻¹ s⁻¹.

For the molecule B6, the equilibrium dissociation constant (Kd) worked out at 0.447 nM, the dissociation rate constant (koff) was found to be 0.000799 s⁻¹ and the kon was 1.79e+06 M⁻¹ s⁻¹.

Turning to B7, the equilibrium dissociation constant (Kd) came to 0.296 nM, the koff was determined as 0.00048 s⁻¹ and the kon came out at 1.62e+06 M⁻¹ s⁻¹.

On to B8, for which the dissociation constant (Kd) was found to be 0.766 nM, the koff is 0.000869 s⁻¹ and the kon was determined as 1.13e+06 M⁻¹ s⁻¹.

Consider B9, for which the Kd stood at 0.422 nM, the koff was found to be 0.000614 s⁻¹ and the on-rate constant (kon) was 1.46e+06 M⁻¹ s⁻¹.

With B10, binding was put at a Kd of 0.35 nM, the off-rate (koff) worked out at 0.00202 s⁻¹ and the kon is 5.77e+06 M⁻¹ s⁻¹.

As for B11, the Kd stood at 0.393 nM, the koff worked out at 0.000654 s⁻¹ and the on-rate (kon) is 1.66e+06 M⁻¹ s⁻¹.

As to B12, the Kd was 0.184 nM, the koff was determined as 0.000833 s⁻¹ and the kon was determined as 4.52e+06 M⁻¹ s⁻¹.

The molecule B13 registered a Kd of 0.704 nM, a koff of 0.00145 s⁻¹ and an association rate constant (kon) of 2.05e+06 M⁻¹ s⁻¹.
